The results in this text go back to publication PMC3420232, “The Transmembrane Domains of TNF-Related Apoptosis-Inducing Ligand (TRAIL) Receptors 1 and 2 Co-Regulate Apoptotic Signaling Capacity” (PLoS ONE, 2012).

For this test, the target named is T1, wild-type human TRAILR2 (human, UniProt O14763 56-440).
T1 construct: TRAIL receptor 2 (TRAILR2, DR5), human, wild type; the printed numbers (transmembrane region ending at 231, GIIIG at 212-216, stalk of about 34 aa) fit the long form; also called DR5; TRICK2; source: immortalized mouse fibroblasts (MF), stably transfected, on cells
Description: radioligand binding; competition on cells: 4x10^5 murine fibroblasts expressing the (chimeric) TRAIL receptor in PFA (PBS, 2% FCS, 0.002% sodium azide), 83 ng/ml 125I-TRAIL with or without unlabeled recombinant human TRAIL (83-5300 ng/ml), 4 hours on ice; cells spun through phthalate oil; 68 kDa used for TRAIL. The settings on record: one partner purified.

For orientation: IC50 means the concentration needed to halve the response being measured.

B1: Flag-tagged recombinant human TRAIL (sTRAIL), unlabeled (ligand, UniProt P50591 95-281, looked up)
chain: TSEETISTVQEKQQNISPLVRERGPQRVAAHITGTRGRSNTLSSPNSKNEKALGRKINSWESSRSGHSFLSNLHLRNGELVIHEKGFYYIYSQTYFRFQEEIKENTKNDKQMVQYIYKYTSYPDPILLMKSARNSCWSKDAEYGLYSIYQGGIFELKENDRIFVSVTNEHLIDMDHEASFFGAFLVG
notes: TRAIL (TNF-related apoptosis-inducing ligand), human, soluble recombinant form (sTRAIL); no removal of the tag is told; also called FLAG-TRAIL; non-labeled TRAIL; source: bought: Axxora (Lörrach, Germany)
On to B1, for which the 50% inhibitory concentration (IC50) amounted to 3.5 nM.
